Where a chain is given by its changes, count along the chain named. Names may count otherwise. Read-outs that look alike come from different tables or passages of the source. Ends that are not written are not given here.
B1: MCoFx2 acyclic (peptide)
peptide: DGGICPRILVYCRRDSDCPGACICIRRTYCGSGS
modifications: not checked
B2: MCoFx2 cyclic (peptide)
peptide: B1 peptide
modifications: not checked
B3: cMCoTI-fxL1 (peptide)
peptide: DGGICPRIGRLCRRDSDCPGACICRGNGYCGSGS
modifications: not checked
B4: MCoFx5 acyclic (peptide)
peptide: DGGRCCGGYLVCRRDSDCPGACICVFKKHCGSGS
modifications: not checked
B5: MCoFx5 cyclic (peptide)
peptide: B4 peptide
modifications: not checked
B6: MCoFx3 acyclic (peptide)
peptide: DGGRCPRLLRWCRRDSDCPGACICARGGLCGSGS
modifications: not checked
B7: MCoFx3 cyclic (peptide)
peptide: B6 peptide
modifications: not checked
B8: MCoFx4 acyclic (peptide)
peptide: DGGVCPRVGWRCRRDSDCPGACICYPTKWCGSGS
modifications: not checked
B9: MCoFx4 cyclic (peptide)
peptide: B8 peptide
modifications: not checked
B10: acyclic MCoTI-II variant M (peptide)
peptide: RVCPRILKKCRRDSDCPGACICRGNGYCG
modifications: not checked
B11: MCoFx1 cyclic (peptide)
peptide: DGGICPRIGRLCRRDSDCPGACICRATRFCGSGY
modifications: not checked
B12: MCoFx1 acyclic (peptide)
peptide: B11 peptide
modifications: not checked
B13: MCoFx1, mRNA display selected sequence (parent of the saturation mutagenesis library) (peptide)
peptide: MDGGICPRIGRLCRRDSDCPGACICRATRFCGSGSGS
modifications: not checked
B14: acyclic variant of MCoFx1 based on a minimized knottin scaffold (29 amino acids) (peptide)
peptide: RICPRIGRLCRRDSDCPGACICRATRFCG
modifications: not checked
B15: MCoTI-II (Momordica cochinchinensis trypsin inhibitor-II), chemically synthesized, cyclic (peptide)
peptide: DGGVCPKILKKCRRDSDCPGACICRGNGYCGSGS
modifications: not checked
B16: Cyclic [R27G]MCoFx7 (peptide)
peptide: GGICPRIGRLCRRDSDCPGACICRATGFCGSGSD
modifications: not fully specified (bridges); cysteine pairing not given here
B17: Cyclic MCoFx7 (peptide)
peptide: B16 peptide with G27R
modifications: not checked
B18: Cyclic [D34P]MCoFx7 (peptide)
peptide: B16 peptide with G27R, D34P
modifications: not fully specified (bridges); cysteine pairing not given here
B19: Cyclic [R12V]MCoFx7 (peptide)
peptide: B16 peptide with R12V, G27R
modifications: not fully specified (bridges); cysteine pairing not given here
B20: Cyclic [A25K]MCoFx7 (peptide)
peptide: B16 peptide with A25K, G27R
modifications: not fully specified (bridges); cysteine pairing not given here
B21: Cyclic [A25P]MCoFx7 (peptide)
peptide: B16 peptide with A25P, G27R
modifications: not fully specified (bridges); cysteine pairing not given here
B22: Cyclic [R13K]MCoFx7 (peptide)
peptide: B16 peptide with R13K, G27R
modifications: not fully specified (bridges); cysteine pairing not given here
B23: Cyclic [R27H]MCoFx7 (peptide)
peptide: B16 peptide with G27H
modifications: not fully specified (bridges); cysteine pairing not given here
B24: Cyclic [R12E]MCoFx7 (peptide)
peptide: B16 peptide with R12E, G27R
modifications: not fully specified (bridges); cysteine pairing not given here
B25: Cyclic [R12T]MCoFx7 (peptide)
peptide: B16 peptide with R12T, G27R
modifications: not fully specified (bridges); cysteine pairing not given here

What was measured:
[1] = biological target: T1, human β-factor XIIa (human), P00748; assay: mRNA display affinity selection on bead-immobilised biotinylated human β-FXIIa, NGS; share of the sequence in the recovered library; peptide displayed as acyclic mRNA fusion
T1 chain 1: NGPLSCGQR
T1 chain 2: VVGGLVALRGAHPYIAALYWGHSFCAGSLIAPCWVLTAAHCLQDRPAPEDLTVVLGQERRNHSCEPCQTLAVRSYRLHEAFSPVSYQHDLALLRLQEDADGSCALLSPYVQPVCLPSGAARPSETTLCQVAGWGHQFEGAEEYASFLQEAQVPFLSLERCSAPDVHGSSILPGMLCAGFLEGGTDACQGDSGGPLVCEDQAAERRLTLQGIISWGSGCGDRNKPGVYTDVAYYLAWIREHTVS

[2] = biological target: T1, human β-factor XIIa (human), P00748; assay: SPR (Biacore T200), biotinylated human β-FXIIa captured on chip, peptide as analyte, 1:1 model
[3] = biological target: T1, human β-factor XIIa (human), P00748; assay: competitive protease inhibition assay, Ac-QRFR-pNA substrate, Morrison Ki
[4] = biological target: bovine trypsin (bovine), P00760; assay: SPR, bovine trypsin
[5] = biological target: T1, human β-factor XIIa (human), P00748; assay: SPR (Biacore T200), biotinylated human β-FXIIa captured on chip, peptide as analyte, 1:1 model
[6] = biological target: human cationic trypsin (human), P07477; assay: competitive protease inhibition assay (selectivity panel), human trypsin, Boc-VPR-MCA
[7] = biological target: T2, FXIIa in human plasma (generated by kaolin activation of FXII in aPTT assays) (human), P00748; assay: cell-based or functional assay
T2 chain: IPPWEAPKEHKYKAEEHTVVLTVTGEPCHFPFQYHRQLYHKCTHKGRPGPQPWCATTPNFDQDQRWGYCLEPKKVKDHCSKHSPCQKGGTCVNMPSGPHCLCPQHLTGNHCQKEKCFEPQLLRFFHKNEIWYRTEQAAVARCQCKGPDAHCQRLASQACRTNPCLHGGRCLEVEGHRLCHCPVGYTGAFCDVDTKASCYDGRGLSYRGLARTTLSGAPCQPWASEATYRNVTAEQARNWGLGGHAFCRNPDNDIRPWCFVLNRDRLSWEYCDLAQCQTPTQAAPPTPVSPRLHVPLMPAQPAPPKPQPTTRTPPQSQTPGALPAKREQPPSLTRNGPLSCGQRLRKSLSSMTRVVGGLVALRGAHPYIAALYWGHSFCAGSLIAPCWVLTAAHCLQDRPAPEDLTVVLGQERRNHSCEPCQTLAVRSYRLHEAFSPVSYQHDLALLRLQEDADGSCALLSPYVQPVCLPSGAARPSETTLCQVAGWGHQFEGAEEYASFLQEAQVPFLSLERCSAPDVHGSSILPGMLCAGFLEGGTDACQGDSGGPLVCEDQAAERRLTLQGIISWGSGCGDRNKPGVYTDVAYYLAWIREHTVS

[8] = biological target: T3, recombinant human matriptase (human), Q9Y5Y6; assay: competitive protease inhibition assay (selectivity panel), human matriptase, Boc-QAR-MCA
T3 chain: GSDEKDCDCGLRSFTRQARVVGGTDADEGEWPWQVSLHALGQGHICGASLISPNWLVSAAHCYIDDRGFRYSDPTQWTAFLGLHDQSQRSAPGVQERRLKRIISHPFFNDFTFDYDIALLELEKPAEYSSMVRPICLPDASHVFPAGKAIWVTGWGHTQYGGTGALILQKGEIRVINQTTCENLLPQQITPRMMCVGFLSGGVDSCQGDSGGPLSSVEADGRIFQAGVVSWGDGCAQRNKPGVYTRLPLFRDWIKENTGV

[9] = biological target: T4, kallikrein-related peptidase 4 (KLK4), Q9Y5K2; assay: competitive inhibition assay with peptide substrate
T4 chain: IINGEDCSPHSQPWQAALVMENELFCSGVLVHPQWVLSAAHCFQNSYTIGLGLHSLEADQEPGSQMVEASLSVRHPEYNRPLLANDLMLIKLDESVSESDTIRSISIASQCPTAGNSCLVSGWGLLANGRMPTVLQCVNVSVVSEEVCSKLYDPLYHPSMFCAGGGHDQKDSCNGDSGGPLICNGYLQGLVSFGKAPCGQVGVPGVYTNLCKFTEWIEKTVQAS

[10] = biological target: T1, human β-factor XIIa (human), P00748; assay: as above
[11] = biological target: human cationic trypsin (human), P07477; assay: as above
[12] = biological target: T3, recombinant human matriptase (human), …; assay: as above
[13] = biological target: bovine trypsin (bovine), P00760; assay: SPR, ratio of KD values
[14] = biological target: T1, human β-factor XIIa (human), P00748; assay: SPR, ratio of KD values
[15] = biological target: T1, human β-factor XIIa (human), P00748; assay: competitive protease inhibition assay, ratio of Ki values
[16] = biological target: T1, human β-factor XIIa (human), P00748; assay: mRNA display affinity selection on bead-immobilised biotinylated human β-FXIIa, NGS; share of the sequence in the recovered library
[17] = biological target: T1, human β-factor XIIa (human), P00748; assay: competitive protease inhibition assay
[18] = biological target: T1, human β-factor XIIa (human), P00748; assay: competitive protease inhibition assay, 0.5 nM FXIIa, Boc-QGR-MCA substrate

Sequence of bovine trypsin (bovine), P00760 (P00760 24-246): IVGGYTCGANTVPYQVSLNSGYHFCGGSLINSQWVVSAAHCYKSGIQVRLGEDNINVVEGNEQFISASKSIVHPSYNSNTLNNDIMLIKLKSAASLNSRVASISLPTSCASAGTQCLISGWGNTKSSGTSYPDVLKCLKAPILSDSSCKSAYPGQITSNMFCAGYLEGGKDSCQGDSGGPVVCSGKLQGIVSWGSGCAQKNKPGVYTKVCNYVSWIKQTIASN

Binder	Kd [2]	Ki [3]	Kd [4]	Kd [5]	Ki [18]	further results
B1	45.4 nM	73 nM	< 0.1 nM	45 nM	–	Population (%) [1]: 19.8%
B2	10 nM	12 nM	< 0.1 nM	–	–	–
B3	–	0.69 nM	–	–	–	Ki [6]: 996 nM; EC2× (inhibitor concentration that doubles the clotting time), aPTT assay in human plasma [7]: 500 nM; Ki [8]: 2210 nM
B4	–	106 nM	–	23 nM	–	Population (%) [1]: 0.8%
B5	81.8 nM	207 nM	–	82 nM	–	–
B6	–	525 nM	2.39 nM	167 nM	–	Population (%) [1]: 2.3%
B7	22.8 nM	75 nM	2.72 nM	23 nM	–	–
B8	73.8 nM	17 nM	15.1 nM	74 nM	–	Population (%) [1]: 2.3%
B9	14.4 nM	5.5 nM	4.09 nM	14 nM	–	–
B10	–	–	–	–	–	Ki [9]: 0.07 nM; Ki [10]: 3.3 nM; Ki [11]: 0.4 nM; Ki [12]: 0.4 nM
B11	0.9 nM	0.37 nM	31.5 nM	–	–	fold lower affinity than MCoTI-II [13]: 300 fold; fold higher affinity than MCoTI-II [14]: 60 fold; Ki [6]: 1110 nM; EC2× (inhibitor concentration that doubles the clotting time), aPTT assay in human plasma [7]: 702 nM; Ki [8]: 9120 nM; fold more potent than MCoTI-II [15]: 350 fold
B12	1.89 nM	0.73 nM	59.6 nM	1.9 nM	–	–
B13	–	–	–	–	–	Population (%) [16]: 20.7%
B14	–	–	–	–	–	Ki [17]: 1.4 nM
B15	–	–	< 0.1 nM	58 nM	–	–
B16	–	–	–	–	0.21 nM	fold loss in activity against cyclic MCoFx7 [15]: 3.2 fold
B17	–	–	–	–	0.064 nM	–
B18	–	–	–	–	0.091 nM	–
B19	–	–	–	–	0.069 nM	–
B20	–	–	–	–	0.046 nM	–
B21	–	–	–	–	0.093 nM	–
B22	–	–	–	–	0.068 nM	–
B23	–	–	–	–	0.12 nM	fold loss in activity against cyclic MCoFx7 [15]: 2 fold
B24	–	–	–	–	0.13 nM	fold weaker activity than cyclic MCoFx7 [15]: 2 fold
B25	–	–	–	–	0.065 nM	–
